{
  "source": "paper PMC11546984",
  "key": {"Crovalimab (human) [1]": {"biological_target": "Crovalimab (human)", "sequence (light, as listed by the source, chain 2 of 2, other chains not shown)": "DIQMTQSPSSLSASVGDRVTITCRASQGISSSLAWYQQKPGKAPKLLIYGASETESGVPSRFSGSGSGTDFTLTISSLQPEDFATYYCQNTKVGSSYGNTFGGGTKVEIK", "assay": "SPR; Biacore T200, 37 °C, pH 7.4; antibodies captured by goat anti-human IgG (Fc) on a CM4 chip (50-80 RU); recombinant human C5 as analyte, three-fold dilutions from 27 nM; 20 mM ACES, 150 mM NaCl, 1.2 mM CaCl2, 0.05% Tween 20, 0.005% NaN3; 1:1 binding model"}, "Crovalimab (human) [2]": {"biological_target": "Crovalimab (human)", "assay": "SPR; Biacore T200, 37 °C, pH 5.8; antibodies captured by goat anti-human IgG (Fc) on a CM4 chip (50-80 RU); recombinant human C5 as analyte, three-fold dilutions from 135 nM; 20 mM ACES, 150 mM NaCl, 1.2 mM CaCl2, 0.05% Tween 20, 0.005% NaN3; 1:1 binding model"}},
  "data": [
    {"substance": "Recombinant human C5 (natural protein)", "values": [
      {"measurement": "Kd", "setting": "Crovalimab (human) [1]", "result": 0.166, "unit": "nM"},
      {"measurement": "koff", "setting": "Crovalimab (human) [1]", "result": 0.000123, "unit": "s⁻¹"},
      {"measurement": "kon", "setting": "Crovalimab (human) [1]", "result": 741000, "unit": "M⁻¹ s⁻¹"},
      {"measurement": "Kd", "setting": "Crovalimab (human) [2]", "result": 132, "unit": "nM"},
      {"measurement": "koff", "setting": "Crovalimab (human) [2]", "result": 0.0164, "unit": "s⁻¹"},
      {"measurement": "kon", "setting": "Crovalimab (human) [2]", "result": 125000, "unit": "M⁻¹ s⁻¹"}
    ]}
  ]
}
